Results from patent publication US20260167699A1 (Chugai, published 2026).

T1: FcγRIIb extracellular domain, His-tagged (human, UniProt P31994 43-217)
T1 construct: extracellular domain; also called 2b
T1 sequence: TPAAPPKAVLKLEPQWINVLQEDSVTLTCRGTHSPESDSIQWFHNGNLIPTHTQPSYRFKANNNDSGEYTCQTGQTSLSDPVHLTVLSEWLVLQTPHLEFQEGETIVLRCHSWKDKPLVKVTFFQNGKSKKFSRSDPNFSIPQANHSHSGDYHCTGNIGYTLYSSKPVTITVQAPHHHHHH

T2: FcγRIIa(H) extracellular domain, His-tagged (human, UniProt P12318 34-217)
T2 construct: extracellular domain; also called 2aH
T2 sequence: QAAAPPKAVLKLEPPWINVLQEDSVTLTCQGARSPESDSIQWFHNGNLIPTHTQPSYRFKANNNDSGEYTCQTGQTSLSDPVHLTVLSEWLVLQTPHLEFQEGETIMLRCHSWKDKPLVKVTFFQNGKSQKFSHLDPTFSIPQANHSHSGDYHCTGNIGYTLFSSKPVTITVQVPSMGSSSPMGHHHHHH

T3: FcγRIIa(R) extracellular domain, His-tagged (human, UniProt P12318 34-217)
T3 construct: extracellular domain; also called 2aR
T3 sequence: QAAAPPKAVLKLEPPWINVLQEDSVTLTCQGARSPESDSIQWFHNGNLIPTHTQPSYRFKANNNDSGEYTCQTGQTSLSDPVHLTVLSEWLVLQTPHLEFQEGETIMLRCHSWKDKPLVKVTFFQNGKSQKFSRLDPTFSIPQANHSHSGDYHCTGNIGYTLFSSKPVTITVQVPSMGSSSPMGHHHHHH


How the values were obtained:
Experiment in all cases: SPR, vs GpH7-A5/GpH7-B3/GpL16-k0 =100
[1] = target: T4, FcγRIIIa extracellular domain, His-tagged (human, UniProt P08637 17-208)
T4 construct: extracellular domain; also called 3a

[2] = target: T5, FcγRIa extracellular domain, His-tagged (human, UniProt P12314 16-292)
T5 construct: extracellular domain; also called 1a

[3] = target: T1, FcγRIIb extracellular domain, His-tagged
[4] = target: T2, FcγRIIa(H) extracellular domain, …
[5] = target: T3, FcγRIIa(R) extracellular domain, …

T4 sequence (P08637 other isoform, or with tags, fused parts or gaps): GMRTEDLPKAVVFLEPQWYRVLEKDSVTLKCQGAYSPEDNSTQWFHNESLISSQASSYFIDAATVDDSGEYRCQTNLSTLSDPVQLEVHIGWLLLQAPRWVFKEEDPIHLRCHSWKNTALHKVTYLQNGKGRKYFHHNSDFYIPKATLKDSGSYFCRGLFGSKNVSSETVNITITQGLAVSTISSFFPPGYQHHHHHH
T5 sequence (P12314 other isoform, or with tags, fused parts or gaps): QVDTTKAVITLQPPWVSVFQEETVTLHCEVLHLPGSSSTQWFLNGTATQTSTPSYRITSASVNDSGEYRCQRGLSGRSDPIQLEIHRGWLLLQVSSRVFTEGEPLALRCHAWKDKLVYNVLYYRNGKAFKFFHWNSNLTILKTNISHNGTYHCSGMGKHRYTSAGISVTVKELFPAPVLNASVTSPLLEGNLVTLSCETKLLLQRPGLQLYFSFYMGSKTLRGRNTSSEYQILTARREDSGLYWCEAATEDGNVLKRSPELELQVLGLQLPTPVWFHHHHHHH

Binder	He/Con 3a [1]	He/Con 1a [2]	He/Con 2b [3]	He/Con 2aH [4]	He/Con 2aR [5]
GpH7-A5/GpH7-B3 variant P271_07I/GpL16-k0 (antibody, human IgG1, kappa) heavy 1: not shown heavy 2: not shown light: DIVMTQSPLSLPVTPGEPASISCQASESLVHSNRNTYLHWYLQKPGQSPQLLIYKVSNRFSGVPDRFSGSGSGTDFTLKISRVEAEDVGVYYCSQNTHVPPTFGQGTKVEIERTVAAPSVFIFPPSDEQLKSGTASVVCLLNNFYPREAKVQWKVDNALQSGNSQESVTEQDSKDSTYSLSSTLTLSKADYEKHKVYACEVTHQGLSSPVTKSFNRGEC	80.2 % of control	101 % of control	86.1 % of control	94.1 % of control	88 % of control
GpH7-A5/GpH7-B3 variant P271_12R/GpL16-k0 (antibody, human IgG1, kappa) heavy 1: not shown heavy 2: not shown light: DIVMTQSPLSLPVTPGEPASISCQASESLVHSNRNTYLHWYLQKPGQSPQLLIYKVSNRFSGVPDRFSGSGSGTDFTLKISRVEAEDVGVYYCSQNTHVPPTFGQGTKVEIERTVAAPSVFIFPPSDEQLKSGTASVVCLLNNFYPREAKVQWKVDNALQSGNSQESVTEQDSKDSTYSLSSTLTLSKADYEKHKVYACEVTHQGLSSPVTKSFNRGEC	87.6 % of control	101 % of control	96.9 % of control	100 % of control	95.8 % of control
GpH7-A5/GpH7-B3 variant P271_08L/GpL16-k0 (antibody, human IgG1, kappa) heavy 1: not shown heavy 2: not shown light: DIVMTQSPLSLPVTPGEPASISCQASESLVHSNRNTYLHWYLQKPGQSPQLLIYKVSNRFSGVPDRFSGSGSGTDFTLKISRVEAEDVGVYYCSQNTHVPPTFGQGTKVEIERTVAAPSVFIFPPSDEQLKSGTASVVCLLNNFYPREAKVQWKVDNALQSGNSQESVTEQDSKDSTYSLSSTLTLSKADYEKHKVYACEVTHQGLSSPVTKSFNRGEC	74.5 % of control	101 % of control	115 % of control	99.4 % of control	103 % of control
GpH7-A5/GpH7-B3 variant P271_16H/GpL16-k0 (antibody, human IgG1, kappa) heavy 1: not shown heavy 2: not shown light: DIVMTQSPLSLPVTPGEPASISCQASESLVHSNRNTYLHWYLQKPGQSPQLLIYKVSNRFSGVPDRFSGSGSGTDFTLKISRVEAEDVGVYYCSQNTHVPPTFGQGTKVEIERTVAAPSVFIFPPSDEQLKSGTASVVCLLNNFYPREAKVQWKVDNALQSGNSQESVTEQDSKDSTYSLSSTLTLSKADYEKHKVYACEVTHQGLSSPVTKSFNRGEC	70.3 % of control	100 % of control	76.2 % of control	76.4 % of control	79 % of control
GpH7-A5/GpH7-B3 variant P271_11K/GpL16-k0 (antibody, human IgG1, kappa) heavy 1: not shown heavy 2: not shown light: DIVMTQSPLSLPVTPGEPASISCQASESLVHSNRNTYLHWYLQKPGQSPQLLIYKVSNRFSGVPDRFSGSGSGTDFTLKISRVEAEDVGVYYCSQNTHVPPTFGQGTKVEIERTVAAPSVFIFPPSDEQLKSGTASVVCLLNNFYPREAKVQWKVDNALQSGNSQESVTEQDSKDSTYSLSSTLTLSKADYEKHKVYACEVTHQGLSSPVTKSFNRGEC	92.5 % of control	101 % of control	101 % of control	100 % of control	97.3 % of control
GpH7-A5/GpH7-B3 variant P271_15Y/GpL16-k0 (antibody, human IgG1, kappa) heavy 1: not shown heavy 2: not shown light: DIVMTQSPLSLPVTPGEPASISCQASESLVHSNRNTYLHWYLQKPGQSPQLLIYKVSNRFSGVPDRFSGSGSGTDFTLKISRVEAEDVGVYYCSQNTHVPPTFGQGTKVEIERTVAAPSVFIFPPSDEQLKSGTASVVCLLNNFYPREAKVQWKVDNALQSGNSQESVTEQDSKDSTYSLSSTLTLSKADYEKHKVYACEVTHQGLSSPVTKSFNRGEC	62.7 % of control	101 % of control	58.6 % of control	74 % of control	70 % of control
GpH7-A5/GpH7-B3 variant P271_14T/GpL16-k0 (antibody, human IgG1, kappa) heavy 1: not shown heavy 2: not shown light: DIVMTQSPLSLPVTPGEPASISCQASESLVHSNRNTYLHWYLQKPGQSPQLLIYKVSNRFSGVPDRFSGSGSGTDFTLKISRVEAEDVGVYYCSQNTHVPPTFGQGTKVEIERTVAAPSVFIFPPSDEQLKSGTASVVCLLNNFYPREAKVQWKVDNALQSGNSQESVTEQDSKDSTYSLSSTLTLSKADYEKHKVYACEVTHQGLSSPVTKSFNRGEC	59.2 % of control	101 % of control	107 % of control	69.8 % of control	94.7 % of control
GpH7-A5/GpH7-B3 variant P271_13S/GpL16-k0 (antibody, human IgG1, kappa) heavy 1: not shown heavy 2: not shown light: DIVMTQSPLSLPVTPGEPASISCQASESLVHSNRNTYLHWYLQKPGQSPQLLIYKVSNRFSGVPDRFSGSGSGTDFTLKISRVEAEDVGVYYCSQNTHVPPTFGQGTKVEIERTVAAPSVFIFPPSDEQLKSGTASVVCLLNNFYPREAKVQWKVDNALQSGNSQESVTEQDSKDSTYSLSSTLTLSKADYEKHKVYACEVTHQGLSSPVTKSFNRGEC	79.8 % of control	101 % of control	98.2 % of control	83.3 % of control	93.5 % of control
GpH7-A5/GpH7-B3 variant P271_10E/GpL16-k0 (antibody, human IgG1, kappa) heavy 1: not shown heavy 2: not shown light: DIVMTQSPLSLPVTPGEPASISCQASESLVHSNRNTYLHWYLQKPGQSPQLLIYKVSNRFSGVPDRFSGSGSGTDFTLKISRVEAEDVGVYYCSQNTHVPPTFGQGTKVEIERTVAAPSVFIFPPSDEQLKSGTASVVCLLNNFYPREAKVQWKVDNALQSGNSQESVTEQDSKDSTYSLSSTLTLSKADYEKHKVYACEVTHQGLSSPVTKSFNRGEC	98.2 % of control	101 % of control	122 % of control	72.4 % of control	102 % of control
GpH7-A5/GpH7-B3 variant P271_09D/GpL16-k0 (antibody, human IgG1, kappa) heavy 1: not shown heavy 2: not shown light: DIVMTQSPLSLPVTPGEPASISCQASESLVHSNRNTYLHWYLQKPGQSPQLLIYKVSNRFSGVPDRFSGSGSGTDFTLKISRVEAEDVGVYYCSQNTHVPPTFGQGTKVEIERTVAAPSVFIFPPSDEQLKSGTASVVCLLNNFYPREAKVQWKVDNALQSGNSQESVTEQDSKDSTYSLSSTLTLSKADYEKHKVYACEVTHQGLSSPVTKSFNRGEC	97.7 % of control	100 % of control	135 % of control	80.4 % of control	109 % of control

Continued, values first:

He/Con 3a [1]	He/Con 1a [2]	He/Con 2b [3]	He/Con 2aH [4]	He/Con 2aR [5]	Binder
94 % of control	102 % of control	105 % of control	94.5 % of control	97.7 % of control	GpH7-A5/GpH7-B3 variant P271_18N/GpL16-k0 (antibody, human IgG1, kappa) heavy 1: not shown heavy 2: not shown light: DIVMTQSPLSLPVTPGEPASISCQASESLVHSNRNTYLHWYLQKPGQSPQLLIYKVSNRFSGVPDRFSGSGSGTDFTLKISRVEAEDVGVYYCSQNTHVPPTFGQGTKVEIERTVAAPSVFIFPPSDEQLKSGTASVVCLLNNFYPREAKVQWKVDNALQSGNSQESVTEQDSKDSTYSLSSTLTLSKADYEKHKVYACEVTHQGLSSPVTKSFNRGEC
77.8 % of control	101 % of control	65.1 % of control	88.7 % of control	76.6 % of control	GpH7-A5/GpH7-B3 variant P271_20W/GpL16-k0 (antibody, human IgG1, kappa) heavy 1: not shown heavy 2: not shown light: DIVMTQSPLSLPVTPGEPASISCQASESLVHSNRNTYLHWYLQKPGQSPQLLIYKVSNRFSGVPDRFSGSGSGTDFTLKISRVEAEDVGVYYCSQNTHVPPTFGQGTKVEIERTVAAPSVFIFPPSDEQLKSGTASVVCLLNNFYPREAKVQWKVDNALQSGNSQESVTEQDSKDSTYSLSSTLTLSKADYEKHKVYACEVTHQGLSSPVTKSFNRGEC
111 % of control	103 % of control	89.4 % of control	101 % of control	91.5 % of control	GpH7-A5/GpH7-B3 variant Q295_02A/GpL16-k0 (antibody, human IgG1, kappa) heavy 1: not shown heavy 2: not shown light: DIVMTQSPLSLPVTPGEPASISCQASESLVHSNRNTYLHWYLQKPGQSPQLLIYKVSNRFSGVPDRFSGSGSGTDFTLKISRVEAEDVGVYYCSQNTHVPPTFGQGTKVEIERTVAAPSVFIFPPSDEQLKSGTASVVCLLNNFYPREAKVQWKVDNALQSGNSQESVTEQDSKDSTYSLSSTLTLSKADYEKHKVYACEVTHQGLSSPVTKSFNRGEC
84.6 % of control	102 % of control	99.3 % of control	90.7 % of control	95.1 % of control	GpH7-A5/GpH7-B3 variant P271_19Q/GpL16-k0 (antibody, human IgG1, kappa) heavy 1: not shown heavy 2: not shown light: DIVMTQSPLSLPVTPGEPASISCQASESLVHSNRNTYLHWYLQKPGQSPQLLIYKVSNRFSGVPDRFSGSGSGTDFTLKISRVEAEDVGVYYCSQNTHVPPTFGQGTKVEIERTVAAPSVFIFPPSDEQLKSGTASVVCLLNNFYPREAKVQWKVDNALQSGNSQESVTEQDSKDSTYSLSSTLTLSKADYEKHKVYACEVTHQGLSSPVTKSFNRGEC
86.2 % of control	102 % of control	84.9 % of control	106 % of control	90.3 % of control	GpH7-A5/GpH7-B3 variant Q295_03V/GpL16-k0 (antibody, human IgG1, kappa) heavy 1: not shown heavy 2: not shown light: DIVMTQSPLSLPVTPGEPASISCQASESLVHSNRNTYLHWYLQKPGQSPQLLIYKVSNRFSGVPDRFSGSGSGTDFTLKISRVEAEDVGVYYCSQNTHVPPTFGQGTKVEIERTVAAPSVFIFPPSDEQLKSGTASVVCLLNNFYPREAKVQWKVDNALQSGNSQESVTEQDSKDSTYSLSSTLTLSKADYEKHKVYACEVTHQGLSSPVTKSFNRGEC
